In the RNAGym collection of RNA variant scans (doi:10.7554/elife.80360):

B1: CPEB3 Ribozyme (parent)
chain: GGGGGCCACAGCAGAAGCGUUCACGUCGCGGCCCCUGUCAGAUUCUGGUGAAUCUGCGAAUUCUGCUGU

Variants of: B1
Experiment: self-cleavage, relative activity (ratio to wild type); higher = more cleavage; co-transcriptional

Variant | self-cleavage
C29G G31A | 0.146
C29G G31U | 0.131
G30U C33G | 0.192
G30U C33U | 0.295
G30U C33A | 0.233
C29G U62A | 0.254
C29G U62G | 0.206
C29G U62C | 0.251
G30U A51G | 0.4
G30U A51C | 0.306
G30U A51U | 0.345
G30C U67A | 0.869
G30A U38G | 0.274
G30A U38C | 0.531
G30A G56C | 0.413
G30A G56U | 0.693
G30A G56A | 0.713
C29U G37C | 0.162
C29U G37U | 0.121
C29U G37A | 0.157
C29G C63U | 0.418
C29G C63A | 0.23
C29U | 0.557
C29G | 0.618

Variant | self-cleavage
G30C G48C | 0.642
G30C G48A | 0.694
C29G G47U | 0.612
C29G G47C | 0.558
C29G G47A | 0.553
G30U C45G | 0.354
G30A U36A | 0.196
C29G G37U | 0.185
G30C C57G | 0.223
C29G G30A | 0.173
C29G G30C | 0.271
G30C A59G | 0.708
G30C A59U | 0.295
G30C A59C | 0.306
G30A G65A | 0.627
G30A G65C | 0.353
G30C C45U | 0.603
G30C C45A | 0.51
G30A C34U | 0.741
G30C | 0.682
G30A | 0.913
G30U | 0.411
G30C U46G | 0.69
G30C C54U | 0.673

Variant | self-cleavage
G30C C54G | 0.296
C29U G56U | 0.198
C29U G56A | 0.244
G30C C66G | 0.396
G30C C66U | 0.666
G30C C66A | 0.397
C29G U36G | 0.236
C29G U36A | 0.157
C29G G41A | 0.236
G30A G41C | 0.215
G30A G41A | 0.382
C29G U43G | 0.393
G30C U62A | 0.259
G30C U62G | 0.343
C29G G56C | 0.225
C29G G56A | 0.299
C29G G56U | 0.292
C29G C57U | 0.206
C29G C57A | 0.215
C29G C57G | 0.183
C29G A52U | 0.504
C29G A52G | 0.53
C29U C54G | 0.219
C29U C54U | 0.448

Variant | self-cleavage
C29G U46A | 0.707
C29G U46G | 0.603
C29G C32A | 0.196
C29G C32G | 0.18
G30A U55C | 0.519
G30A U55G | 0.453
C29A U67C | 0.736
C29A U67A | 0.668
G30A U67G | 0.948
G30A U67A | 0.901
C29U G50U | 0.517
C29U G50C | 0.321
C29U G50A | 0.524
G30A C33U | 0.691
G30A C33A | 0.203
G30C U49A | 0.686
G30C U49G | 0.564
G30C U49C | 0.721
G30C G41A | 0.298
G30C G65C | 0.431
C29U A52G | 0.529
C29U A52U | 0.396
C29U A52C | 0.417
G30C A51G | 0.628

Variant | self-cleavage
G30C A51C | 0.614
C29U C66A | 0.235
C29U C66U | 0.242
C29G G68C | 0.715
C29G G68A | 0.845
G30A G47C | 0.93
C29U C35U | 0.314
G30U C34G | 0.193
G30U C34U | 0.323
G30C C63G | 0.329
G30C C63U | 0.645
G30C G68A | 0.899
G30C G68C | 0.905
G30C G68U | 0.938
C29G A40C | 0.157
C29G A40G | 0.457
C29G A40U | 0.277
G30U C54A | 0.248
G30U C54G | 0.248
G30A A51G | 0.744
G30A A51U | 0.752
C29U U62C | 0.211
C29U U62G | 0.21
C29U C34U | 0.495

Variant | self-cleavage
C29U C34G | 0.276
C29U C34A | 0.299
G30U C39A | 0.273
G30U C39U | 0.252
G30U C39G | 0.29
C29U G68U | 0.515
C29U G68A | 0.586
C29U U67C | 0.308
C29U U67A | 0.21
C29U U67G | 0.359
G30C C34A | 0.243
G30C C34U | 0.6
C29U C45U | 0.505
C29U C45G | 0.404
C29U C45A | 0.307
C29U U49A | 0.542
C29U U49C | 0.411
C29U U49G | 0.514
C29G A42G | 0.445
C29G A42U | 0.385
C29U G65U | 0.167
C29U G65A | 0.19
C29U G65C | 0.272
G30A C66G | 0.61

Variant | self-cleavage
G30A C66U | 0.861
G30C U55A | 0.466
G30C U55C | 0.388
G30C U55G | 0.323
G30C G58U | 0.579
G30C G58C | 0.494
G30C G58A | 0.359
G30A U61A | 0.418
G30A A40C | 0.276
G30A A40G | 0.754
G30A A40U | 0.461
C29U G41A | 0.184
C29U G41C | 0.173
G30A U44A | 0.658
G30A U44C | 0.697
C29U C32G | 0.165
C29U C32U | 0.645
C29G G65C | 0.232
C29G G65U | 0.182
C29G G65A | 0.286
C29G C33A | 0.212
C29G C33G | 0.16
G30A U49C | 0.909
G30A U49G | 0.674

Variant | self-cleavage
G30C G47A | 0.617
G30C G47U | 0.71
G30C G47C | 0.696
C29U A40G | 0.288
C29U A40C | 0.203
C29U A40U | 0.157
G30A U69C | 1.04
G30A U69A | 1
G30C C33U | 0.576
G30A U64C | 0.795
G30A C39U | 0.598
G30A C39G | 0.596
G30A G48U | 0.868
G30A G48C | 0.901
G30A C57U | 0.272
C29U U44C | 0.311
C29U U44G | 0.3
C29U G48U | 0.583
C29U G48A | 0.601
C29G C54A | 0.259
G30C U69G | 0.96
G30C U69A | 0.88
G30C U69C | 0.995
C29G U53A | 0.308

Variant | self-cleavage
C29G U53C | 0.193
C29G U53G | 0.389
G30A G31C | 0.254
C29G U38G | 0.207
C29G U38C | 0.302
C29U A59C | 0.237
C29U A59G | 0.58
G30C A52C | 0.506
G30C A52G | 0.724
G30C A52U | 0.556
G30C A60G | 0.411
G30C A60C | 0.285
G30C A60U | 0.242
C29U C33A | 0.355
C29U C33G | 0.226
G30U A42U | 0.247
G30U A42C | 0.282
C29U G58A | 0.372
C29U G58U | 0.641
C29G A60U | 0.204
C29G A60G | 0.337
C29G A60C | 0.108
G30C U36G | 0.188
G30C U36A | 0.192

Variant | self-cleavage
G30C C32A | 0.194
C29A U69C | 0.973
C29U A51G | 0.537
G30C U53C | 0.44
G30C U53G | 0.46
G30C G31A | 0.252
G30C G31C | 0.136
G30A A60C | 0.261
G30A A42G | 0.817
C29G U55C | 0.253
C29G U55G | 0.171
C29G U55A | 0.267
G30C A40G | 0.462
G30C A40C | 0.197
G30C U61G | 0.304
G30A U62C | 0.497
C29U C57U | 0.227
C29U C57A | 0.154
C29U C57G | 0.177
G30C G56A | 0.464
C29G A59U | 0.203
C29G A59C | 0.272
G30A U53C | 0.604
G30A U53G | 0.356

Variant | self-cleavage
G30A U53A | 0.541
G30C C39U | 0.396
G30C C39A | 0.218
C29G G50A | 0.609
C29G G50U | 0.535
C29U U61A | 0.244
C29U U61G | 0.218
C29G U61A | 0.57
G30A U43C | 0.704
G30A U43A | 0.579
G30A U43G | 0.464
C29G U64G | 0.279
C29G U64C | 0.369
G30A U46C | 0.866
G30A U46A | 0.723
G30A C54A | 0.431
G30A C54U | 0.876
C29U U55G | 0.167
C29U U55A | 0.173
C29U U55C | 0.199
C29U A60G | 0.345
C29U A60U | 0.23
G30A C35A | 0.207
C29G C39A | 0.213

Variant | self-cleavage
G30U A52G | 0.287
G30U A52C | 0.395
G30U A40G | 0.341
G30U A59G | 0.309
G30U A59C | 0.172
G30U A59U | 0.222
C29U U38G | 0.238
C29U U38C | 0.189
G30C U43G | 0.369
G30C U43C | 0.587
G30A A52C | 0.739
G30A A52U | 0.806
C29U G31A | 0.315
C29U G31U | 0.221
G30A C45G | 0.73
G30A C45U | 0.884
C29G C66A | 0.312
C29G C66U | 0.418
C29U A42U | 0.262
G30C U38A | 0.314
G30C U38G | 0.204
G30C U38C | 0.379
C29G G58U | 0.558
C29G G58C | 0.416

Variant | self-cleavage
G30U C32A | 0.175
C29U U69A | 0.619
C29U U69G | 0.737
C29U U69C | 0.834
C29G U49A | 0.521
C29G U49G | 0.65
C29G C34G | 0.294
C29U G30C | 0.232
C29U G30U | 0.169
C29U U64C | 0.371
C29A U64G | 0.292
G30A A59U | 0.361
G30A G68A | 0.988
C29U U43C | 0.301
C29U C63U | 0.253
G30U A60U | 0.213
G30U A60C | 0.173
C29G U44A | 0.338
C29G U44C | 0.314
C29G G48A | 0.667
C29G G48U | 0.602
C29G G48C | 0.698
C29G C35A | 0.234
C29G C35G | 0.301

Variant | self-cleavage
C29G C35U | 0.307
C29G U69C | 0.892
C29G U69A | 0.757
G30A C63A | 0.413
G30C A42C | 0.441
G30C A42G | 0.604
G30A C32A | 0.245
G30A C32G | 0.261
G30A C32U | 0.714
G30A G50A | 0.927
G30A G50C | 0.774
C29G C45G | 0.407
C29G C45A | 0.402
G30U C35G | 0.213
G30U C35A | 0.191
C29U U36A | 0.132
C29U G47C | 0.62
C29U G47A | 0.598
C29U C39A | 0.16
C29U C39U | 0.193
C29U U46A | 0.699
G30C C35G | 0.15
